Columns and labels:
AncSZ = test: phosphorylation enrichment, bacterial display (enrichment ratio); higher = better substrate or ligand; peptides without Tyr show the background
Fyn = Fyn (UniProt P06241); test: as above
EPHB2 = EPHB2 (UniProt P29323); test: as above
c-Src = test: as above
MERTK = MERTK (UniProt Q12866); test: as above
Fer (mouse) = test: as above
FGFR1 = FGFR1 (UniProt P11362); test: as above
Jak2 = Jak2 (UniProt O60674); test: as above
EPHB1 = EPHB1 (UniProt P54762); test: as above
Chain of EPHB1 (P54762 whole entry, looked up): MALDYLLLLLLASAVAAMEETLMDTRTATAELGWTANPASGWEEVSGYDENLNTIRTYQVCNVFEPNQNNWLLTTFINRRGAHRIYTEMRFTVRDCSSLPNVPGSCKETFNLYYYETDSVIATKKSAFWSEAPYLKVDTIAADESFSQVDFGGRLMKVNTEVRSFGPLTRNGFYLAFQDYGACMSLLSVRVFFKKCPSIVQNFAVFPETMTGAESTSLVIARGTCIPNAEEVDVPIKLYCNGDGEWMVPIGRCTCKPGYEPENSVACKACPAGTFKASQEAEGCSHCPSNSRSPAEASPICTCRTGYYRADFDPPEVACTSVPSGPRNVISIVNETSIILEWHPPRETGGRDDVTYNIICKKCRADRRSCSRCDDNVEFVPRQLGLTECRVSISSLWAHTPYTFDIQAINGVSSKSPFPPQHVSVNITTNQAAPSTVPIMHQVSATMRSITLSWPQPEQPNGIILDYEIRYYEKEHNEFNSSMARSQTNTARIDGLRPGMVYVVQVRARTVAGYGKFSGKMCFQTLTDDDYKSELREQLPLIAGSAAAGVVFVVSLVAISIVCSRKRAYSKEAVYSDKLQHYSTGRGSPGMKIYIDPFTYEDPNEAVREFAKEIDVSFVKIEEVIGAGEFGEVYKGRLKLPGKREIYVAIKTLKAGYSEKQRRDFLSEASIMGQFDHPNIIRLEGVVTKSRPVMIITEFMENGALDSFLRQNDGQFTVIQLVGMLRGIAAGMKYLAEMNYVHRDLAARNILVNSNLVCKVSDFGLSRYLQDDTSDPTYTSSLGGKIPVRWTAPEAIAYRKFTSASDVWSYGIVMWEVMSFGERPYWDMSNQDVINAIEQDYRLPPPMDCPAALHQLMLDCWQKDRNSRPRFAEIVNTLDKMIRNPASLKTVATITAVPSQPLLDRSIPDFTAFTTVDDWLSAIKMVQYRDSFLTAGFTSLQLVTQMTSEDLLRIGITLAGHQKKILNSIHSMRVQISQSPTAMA

c-Abl (mouse) = test: as above
FGFR3 = FGFR3 (UniProt P22607); test: as above
Fes = Fes (UniProt P07332); test: as above
Chain of Fes (P07332 whole entry, looked up): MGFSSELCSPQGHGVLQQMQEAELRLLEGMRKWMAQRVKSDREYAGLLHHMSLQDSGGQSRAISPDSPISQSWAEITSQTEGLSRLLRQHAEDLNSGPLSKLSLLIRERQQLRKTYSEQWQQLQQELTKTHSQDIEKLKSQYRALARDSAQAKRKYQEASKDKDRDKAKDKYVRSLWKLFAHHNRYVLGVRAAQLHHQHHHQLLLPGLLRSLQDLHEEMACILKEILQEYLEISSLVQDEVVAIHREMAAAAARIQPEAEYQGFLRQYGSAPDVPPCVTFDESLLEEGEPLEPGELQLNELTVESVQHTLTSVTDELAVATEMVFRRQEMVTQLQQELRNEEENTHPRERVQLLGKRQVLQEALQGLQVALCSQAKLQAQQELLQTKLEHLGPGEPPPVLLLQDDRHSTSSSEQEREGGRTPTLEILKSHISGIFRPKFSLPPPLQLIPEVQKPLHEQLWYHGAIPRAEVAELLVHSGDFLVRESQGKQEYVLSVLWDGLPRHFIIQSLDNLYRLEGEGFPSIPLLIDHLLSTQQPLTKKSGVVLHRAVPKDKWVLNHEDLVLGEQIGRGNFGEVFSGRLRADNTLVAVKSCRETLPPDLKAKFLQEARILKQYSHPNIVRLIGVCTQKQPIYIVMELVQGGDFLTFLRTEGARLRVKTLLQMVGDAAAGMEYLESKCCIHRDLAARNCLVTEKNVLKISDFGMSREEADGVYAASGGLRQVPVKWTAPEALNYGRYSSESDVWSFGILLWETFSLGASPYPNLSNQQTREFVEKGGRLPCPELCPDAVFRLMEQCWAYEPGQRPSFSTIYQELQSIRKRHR

Hck = Hck (UniProt P08631); test: as above
c-Src SH2 = test: SH2 binding enrichment of the phosphorylated peptide, bacterial display (enrichment ratio); higher = better substrate or ligand; peptides without Tyr show the background
Grb2 SH2 = Grb2 SH2 (UniProt P62993); test: as above
Chain of Grb2 SH2 (P62993 whole entry, looked up): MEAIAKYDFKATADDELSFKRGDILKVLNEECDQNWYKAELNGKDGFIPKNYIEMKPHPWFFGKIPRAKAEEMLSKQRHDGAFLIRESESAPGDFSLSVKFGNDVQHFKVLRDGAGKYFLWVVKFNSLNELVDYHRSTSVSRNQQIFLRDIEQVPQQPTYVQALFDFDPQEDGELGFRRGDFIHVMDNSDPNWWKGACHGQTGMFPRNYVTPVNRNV

SHP2-C SH2 = test: as above
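Throughout, for SH2 binding enrichment of the phosphorylated peptide, bacterial display: peptide library displayed on the E. coli surface as eCPX fusions, selected cells deep-sequenced, score is each peptide's frequency after selection divided by its frequency in the input.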
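Throughout, for phosphorylation enrichment, bacterial display: 11-residue human phosphosite peptides and single-mutation variants displayed on the E. coli surface, counted by deep sequencing, each peptide's frequency after selection divided by its frequency in the unselected input library; frequency after pTyr selection over input frequency; kinase dosed for 20-30% of maximal phosphorylation in three min.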

Chain of MERTK (Q12866 whole entry, looked up): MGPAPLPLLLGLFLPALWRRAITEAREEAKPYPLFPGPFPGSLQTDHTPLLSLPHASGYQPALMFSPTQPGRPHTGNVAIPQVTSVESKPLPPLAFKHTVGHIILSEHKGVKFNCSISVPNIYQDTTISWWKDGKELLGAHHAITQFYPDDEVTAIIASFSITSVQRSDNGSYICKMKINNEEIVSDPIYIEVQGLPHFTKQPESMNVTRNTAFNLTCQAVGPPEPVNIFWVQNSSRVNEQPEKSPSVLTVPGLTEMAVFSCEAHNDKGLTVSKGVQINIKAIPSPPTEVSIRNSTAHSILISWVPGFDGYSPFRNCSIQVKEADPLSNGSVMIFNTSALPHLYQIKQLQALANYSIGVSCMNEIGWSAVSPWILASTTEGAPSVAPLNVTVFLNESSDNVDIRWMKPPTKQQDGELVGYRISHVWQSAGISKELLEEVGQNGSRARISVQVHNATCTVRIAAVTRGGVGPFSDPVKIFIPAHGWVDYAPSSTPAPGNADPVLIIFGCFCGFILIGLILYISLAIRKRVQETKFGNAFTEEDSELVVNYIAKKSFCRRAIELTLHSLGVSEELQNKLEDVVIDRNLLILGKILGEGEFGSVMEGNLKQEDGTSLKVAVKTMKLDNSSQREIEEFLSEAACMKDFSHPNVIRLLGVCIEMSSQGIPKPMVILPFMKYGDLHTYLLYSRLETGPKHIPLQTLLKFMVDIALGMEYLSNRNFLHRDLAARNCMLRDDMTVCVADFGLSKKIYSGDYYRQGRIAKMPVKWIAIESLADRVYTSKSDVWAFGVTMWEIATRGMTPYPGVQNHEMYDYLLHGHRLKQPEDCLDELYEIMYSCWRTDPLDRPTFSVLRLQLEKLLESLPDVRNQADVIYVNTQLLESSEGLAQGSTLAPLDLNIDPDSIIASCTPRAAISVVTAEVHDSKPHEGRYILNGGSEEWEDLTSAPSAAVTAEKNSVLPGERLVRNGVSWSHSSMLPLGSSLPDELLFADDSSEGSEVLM
Chain of FGFR1 (P11362 whole entry, looked up): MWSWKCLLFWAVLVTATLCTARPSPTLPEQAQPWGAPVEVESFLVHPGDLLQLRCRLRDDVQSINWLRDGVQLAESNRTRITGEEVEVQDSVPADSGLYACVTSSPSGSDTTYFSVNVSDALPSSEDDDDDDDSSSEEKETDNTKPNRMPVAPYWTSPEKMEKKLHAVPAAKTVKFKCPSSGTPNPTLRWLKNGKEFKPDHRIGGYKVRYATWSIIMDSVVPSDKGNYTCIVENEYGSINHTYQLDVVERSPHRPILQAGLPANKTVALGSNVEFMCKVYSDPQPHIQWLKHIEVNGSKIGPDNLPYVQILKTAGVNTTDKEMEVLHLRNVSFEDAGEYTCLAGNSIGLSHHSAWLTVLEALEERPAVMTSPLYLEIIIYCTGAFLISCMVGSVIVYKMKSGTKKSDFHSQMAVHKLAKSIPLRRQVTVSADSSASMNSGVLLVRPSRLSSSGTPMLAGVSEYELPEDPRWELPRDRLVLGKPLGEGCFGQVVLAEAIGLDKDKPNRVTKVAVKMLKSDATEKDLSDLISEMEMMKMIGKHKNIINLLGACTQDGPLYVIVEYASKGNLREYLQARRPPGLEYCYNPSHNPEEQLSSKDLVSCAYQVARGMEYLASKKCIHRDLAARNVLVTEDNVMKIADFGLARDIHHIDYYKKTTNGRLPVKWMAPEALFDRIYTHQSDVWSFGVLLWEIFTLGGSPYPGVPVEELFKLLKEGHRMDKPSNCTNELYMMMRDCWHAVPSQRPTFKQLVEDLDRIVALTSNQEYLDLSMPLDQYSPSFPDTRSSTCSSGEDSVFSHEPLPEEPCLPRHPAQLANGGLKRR
Chain of Jak2 (O60674 whole entry, looked up): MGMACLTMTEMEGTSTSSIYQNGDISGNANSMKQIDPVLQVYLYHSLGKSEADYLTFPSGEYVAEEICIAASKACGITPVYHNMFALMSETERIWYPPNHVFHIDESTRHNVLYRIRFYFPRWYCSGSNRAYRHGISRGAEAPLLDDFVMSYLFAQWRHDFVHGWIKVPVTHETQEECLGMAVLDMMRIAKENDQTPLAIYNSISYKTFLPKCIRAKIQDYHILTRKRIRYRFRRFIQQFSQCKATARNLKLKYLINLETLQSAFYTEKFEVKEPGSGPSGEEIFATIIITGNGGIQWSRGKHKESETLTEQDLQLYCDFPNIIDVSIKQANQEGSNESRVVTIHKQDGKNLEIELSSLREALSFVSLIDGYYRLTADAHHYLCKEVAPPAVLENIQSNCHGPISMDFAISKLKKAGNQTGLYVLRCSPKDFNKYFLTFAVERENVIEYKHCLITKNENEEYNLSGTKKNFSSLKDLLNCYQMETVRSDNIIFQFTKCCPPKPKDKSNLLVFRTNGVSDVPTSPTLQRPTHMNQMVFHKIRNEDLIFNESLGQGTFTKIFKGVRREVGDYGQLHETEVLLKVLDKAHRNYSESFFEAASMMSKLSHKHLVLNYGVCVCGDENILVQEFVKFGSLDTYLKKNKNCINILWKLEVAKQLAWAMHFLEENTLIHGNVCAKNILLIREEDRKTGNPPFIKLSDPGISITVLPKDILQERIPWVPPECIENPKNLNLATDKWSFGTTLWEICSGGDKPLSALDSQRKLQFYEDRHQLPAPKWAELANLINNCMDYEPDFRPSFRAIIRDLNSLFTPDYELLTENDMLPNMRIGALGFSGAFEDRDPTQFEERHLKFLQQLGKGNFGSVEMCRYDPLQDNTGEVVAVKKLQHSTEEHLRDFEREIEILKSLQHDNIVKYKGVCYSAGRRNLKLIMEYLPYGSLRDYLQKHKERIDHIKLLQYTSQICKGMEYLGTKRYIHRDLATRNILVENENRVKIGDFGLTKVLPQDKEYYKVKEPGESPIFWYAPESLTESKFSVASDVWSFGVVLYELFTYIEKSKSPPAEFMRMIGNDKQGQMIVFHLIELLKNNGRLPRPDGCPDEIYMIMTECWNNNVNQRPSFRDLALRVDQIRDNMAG

Row | Sequence | phosphorylation enrichment (AncSZ) | phosphorylation enrichment (Fyn) | phosphorylation enrichment (EPHB2) | phosphorylation enrichment (c-Src) | phosphorylation enrichment (MERTK) | phosphorylation enrichment (Fer (mouse)) | phosphorylation enrichment (FGFR1) | phosphorylation enrichment (Jak2) | phosphorylation enrichment (EPHB1) | phosphorylation enrichment (c-Abl (mouse)) | phosphorylation enrichment (FGFR3) | phosphorylation enrichment (Fes) | phosphorylation enrichment (Hck) | SH2 binding enrichment (c-Src SH2) | SH2 binding enrichment (Grb2 SH2) | SH2 binding enrichment (SHP2-C SH2)
1 | KQNSLYSFSDH [CCDC82_Y331] | 1 | 5.24 | 0.651 | 3.97 | 9.08 | 3.95 | 0.489 | 0.853 | 0.853 | 0.691 | 0.536 | 0.907 | 3.25 | 0.466 | 0.765 | 0.609
2 | KRGASYILKLA [SERPINB1_Y84] | 0.96 | 0.408 | 0.477 | 0.421 | 0.421 | 0.415 | 0.509 | 0.952 | 0.37 | 0.802 | 0.76 | 1.06 | 0.414 | 1.24 | 1.64 | 1.5
3 | KRLYAYKMLMA [TMC2_Y209_Q205R] | 0.731 | 0.327 | 0.493 | 0.399 | 0.348 | 0.42 | 0.453 | 0.675 | 0.492 | 0.684 | 0.568 | 0.869 | 0.436 | 1.84 | 1.83 | 1.68
4 | KRTFEYEAEKN [DENND2B_Y396_D399E] | 0.771 | 0.501 | 0.431 | 0.518 | 0.505 | 0.436 | 0.511 | 0.798 | 0.43 | 0.675 | 0.527 | 0.769 | 0.463 | 0.535 | 1.06 | 0.703
5 | KSELAYEIFDK [MYOM2_Y1024] | 2 | 1.94 | 0.603 | 4.27 | 4.45 | 1 | 0.65 | 1.24 | 0.596 | 0.915 | 0.782 | 1.21 | 0.951 | 0.956 | 0.956 | 0.776
6 | KSVEEYANCHL [TF_Y593_P589S] | 0.756 | 0.458 | 0.429 | 0.408 | 0.521 | 0.466 | 0.475 | 0.688 | 0.482 | 0.628 | 0.666 | 0.85 | 0.486 | 1.14 | 1.14 | 0.782
7 | KSVLVYRNGDP [DCDC2_Y22] | 0.539 | 0.426 | 0.401 | 0.4 | 0.355 | 0.435 | 0.362 | 0.55 | 0.431 | 0.446 | 0.449 | 0.617 | 0.405 | 0.622 | 0.972 | 0.829
8 | KTNVSYFGALD [CACNB4_Y103_C104F] | 0.789 | 0.554 | 0.43 | 0.438 | 0.426 | 0.464 | 0.509 | 0.653 | 0.438 | 0.59 | 0.634 | 0.848 | 0.484 | 0.443 | 0.847 | 0.63
9 | KTSGNYLAVTG [WDR19_Y28] | 0.573 | 0.536 | 0.517 | 0.42 | 0.757 | 0.404 | 0.5 | 0.449 | 0.974 | 0.445 | 0.457 | 0.57 | 0.454 | 0.427 | 0.824 | 0.654
10 | KVGRVYLFLQP [ITGA2B_Y360_E355K] | 1.02 | 0.375 | 0.522 | 0.362 | 0.391 | 0.492 | 0.404 | 0.983 | 0.558 | 0.75 | 0.768 | 1.2 | 0.462 | 0.48 | 0.843 | 0.724
11 | KVKPIYFHTQG [AR_Y916] | 0.645 | 0.371 | 0.422 | 0.522 | 0.356 | 0.28 | 0.468 | 0.53 | 0.358 | 0.578 | 0.507 | 0.708 | 0.385 | 1.37 | 1.59 | 1.82
12 | KVKPIYLHTQG [AR_Y916_F917L] | 0.687 | 0.405 | 0.457 | 0.402 | 0.54 | 0.438 | 0.441 | 0.61 | 0.496 | 0.736 | 0.612 | 0.728 | 0.39 | 1.65 | 1.71 | 1.84
13 | KVNKIYHPDFI [LIG3_Y767_Y768H] | 0.542 | 0.417 | 0.417 | 0.43 | 0.443 | 0.395 | 0.398 | 0.574 | 0.39 | 0.473 | 0.539 | 0.627 | 0.488 | 0.494 | 0.889 | 0.999
14 | LAGRYYALKSM [CKB_Y174] | 1.24 | 0.668 | 0.417 | 0.67 | 3.22 | 0.545 | 1.45 | 1.29 | 0.541 | 0.594 | 0.957 | 0.852 | 0.783 | 1.67 | 1.21 | 2.14
15 | LAIELYVVVCK [RHO_Y136_R135L] | 2.14 | 1.14 | 2.06 | 1.11 | 0.597 | 1.17 | 1.4 | 2.07 | 2.12 | 2.59 | 1.64 | 3.23 | 0.861 | 0.458 | 0.976 | 0.67
16 | LANNEYFFQVC | 3.75 | 1.4 | 0.804 | 1.35 | 0.933 | 0.939 | 12.8 | 2.29 | 1.55 | 1.74 | 9.36 | 2.72 | 0.932 | 0.611 | 0.599 | 0.888
17 | LARDMHDKEFF [MET_Y1230_Y1230H_YF] | 1.08 | 0.821 | 0.757 | 0.671 | 0.907 | 0.362 | 0.625 | 1.15 | 0.723 | 0.91 | 0.661 | 0.864 | 0.812 | 0.423 | 0.884 | 0.668

Row | Sequence | phosphorylation enrichment (AncSZ) | phosphorylation enrichment (Fyn) | phosphorylation enrichment (EPHB2) | phosphorylation enrichment (c-Src) | phosphorylation enrichment (MERTK) | phosphorylation enrichment (Fer (mouse)) | phosphorylation enrichment (FGFR1) | phosphorylation enrichment (Jak2) | phosphorylation enrichment (EPHB1) | phosphorylation enrichment (c-Abl (mouse)) | phosphorylation enrichment (FGFR3) | phosphorylation enrichment (Fes) | phosphorylation enrichment (Hck) | SH2 binding enrichment (c-Src SH2) | SH2 binding enrichment (Grb2 SH2) | SH2 binding enrichment (SHP2-C SH2)
18 | LARNMYDKEYY [MET_Y1230_D1228N] | 1.13 | 0.441 | 0.546 | 0.611 | 0.358 | 0.468 | 0.631 | 0.84 | 0.482 | 0.565 | 0.569 | 0.872 | 0.605 | 0.71 | 0.843 | 0.673
19 | LAVNPYGPPDP | 0.796 | 0.454 | 0.553 | 0.523 | 0.594 | 0.44 | 0.436 | 0.709 | 0.461 | 0.726 | 0.493 | 0.692 | 0.516 | 0.528 | 0.934 | 0.7
20 | LDFPEYDGVDR [CASQ1_Y43] | 2.6 | 0.75 | 0.865 | 1.5 | 0.556 | 0.719 | 0.59 | 2 | 0.633 | 1.48 | 1.37 | 2.01 | 1.11 | 0.625 | 1.57 | 0.667
21 | LDLSYYHTSSS [EMD_Y182_P183H] | 0.929 | 0.509 | 0.614 | 0.676 | 0.634 | 0.451 | 1.11 | 1.51 | 0.516 | 0.672 | 1.22 | 0.977 | 0.452 | 1.19 | 1.26 | 1.36
22 | LDYNEYFRGLN [HPRT1_Y198_D201G] | 2.67 | 1.6 | 1.37 | 0.892 | 0.733 | 1.06 | 2.77 | 3.42 | 1.28 | 0.847 | 1.85 | 1.95 | 2.6 | 0.445 | 0.865 | 0.812
23 | LENSTYQYIHV [CRB1_Y760_R764H] | 2.84 | 3.32 | 5.17 | 3.15 | 7.77 | 17.8 | 9.48 | 1.18 | 11.2 | 1.01 | 5.6 | 1.68 | 7.21 | 1.45 | 1.05 | 1.06
24 | LEQRPYRRGSE [KCNJ12_Y427_E430G] | 0.651 | 0.424 | 0.478 | 0.399 | 0.442 | 0.447 | 0.365 | 0.576 | 0.348 | 0.594 | 0.511 | 0.683 | 0.523 | 0.419 | 0.891 | 0.733
25 | LFHENYNAGTF [CFI_Y421_I416L_YF] | 0.928 | 0.683 | 1.23 | 0.649 | 0.654 | 0.822 | 0.634 | 1.07 | 0.848 | 0.597 | 0.941 | 1.11 | 0.596 | 0.539 | 0.72 | 0.856
26 | LFMGDYVDRGY [PPP2CA_Y86] | 1.6 | 0.699 | 0.977 | 0.8 | 0.701 | 0.612 | 1.46 | 1.41 | 0.983 | 0.982 | 1.02 | 1.47 | 1.01 | 0.711 | 0.696 | 0.927
27 | LFPANYVAPMT [GRAP2_Y324] | 0.827 | 0.446 | 1.31 | 0.397 | 0.551 | 0.418 | 0.535 | 0.649 | 3.55 | 0.713 | 0.617 | 0.91 | 0.551 | 0.663 | 0.828 | 0.835
28 | LFSGDCFRIQG [DDR2_Y740_Y740C_YF] | 0.931 | 0.472 | 0.602 | 0.459 | 0.425 | 0.468 | 0.516 | 0.764 | 0.554 | 0.84 | 0.693 | 1.15 | 0.486 | 0.553 | 0.844 | 0.524
29 | LFSLGYHQSRW [GANAB_Y396] | 1.04 | 0.726 | 0.724 | 0.454 | 0.649 | 0.584 | 0.567 | 0.767 | 0.647 | 0.638 | 1.02 | 1.16 | 0.855 | 0.717 | 1.15 | 0.828
30 | LGGAMYFLEAD [PKHD1_Y452_E457D_YF] | 1.01 | 0.717 | 0.701 | 0.772 | 0.536 | 0.517 | 0.461 | 1.03 | 0.535 | 0.682 | 0.77 | 1.09 | 0.581 | 0.667 | 0.768 | 0.698
31 | LGGAMYYLEAD [PKHD1_Y452_E457D] | 1.39 | 1.7 | 0.672 | 1.86 | 1.62 | 0.664 | 1.36 | 1.19 | 0.839 | 0.956 | 1.6 | 1.48 | 1.08 | 1.1 | 0.83 | 0.762
32 | LGLDECLDKLK [FMNL2_Y352_Y352C] | 1.91 | 1.04 | 1.37 | 0.92 | 1.09 | 1.31 | 1.28 | 2.01 | 1.05 | 1.7 | 1.54 | 1.85 | 1.31 | 0.75 | 0.934 | 0.492
33 | LGPSDYFGEIA [PRKAR1A_Y323] | 1.76 | 0.705 | 0.727 | 0.68 | 0.605 | 0.579 | 1.39 | 1.08 | 0.696 | 0.746 | 1.12 | 1.14 | 0.602 | 0.51 | 0.878 | 0.599
